According to publication PMC12712053:

Columns and labels:
[1] = target: human Mre11 core (HsMre11c) (human); test: native gel or EMSA
[2] = target: human Mre11 core (HsMre11c) (human); test: SEC

stoichiometry N [1]: 2 | stoichiometry N [2]: 2
Substance: human Mre11 core (HsMre11c) (domain or fragment)
